Patent US20210355194A1 (TWIST BIOSCIENCE, published 2021)
Like-named read-outs stand apart in the source and are kept apart here.

Columns and labels:
ACE2 [1] = molecular target: T1, ACE2 (human, UniProt Q9BYF1 18-740)
ACE2 [2] = molecular target: T1, ACE2; remark: listed apart in the source
[3] = molecular target: T2, Acro SARS-CoV-2 (COVID-19) S1 protein (SARS-CoV-2, UniProt P0DTC2 16-685); assay: SPR
T2 construct: also called SARS-CoV-2 S1

T1 sequence (Q9BYF1 18-740 limits assumed): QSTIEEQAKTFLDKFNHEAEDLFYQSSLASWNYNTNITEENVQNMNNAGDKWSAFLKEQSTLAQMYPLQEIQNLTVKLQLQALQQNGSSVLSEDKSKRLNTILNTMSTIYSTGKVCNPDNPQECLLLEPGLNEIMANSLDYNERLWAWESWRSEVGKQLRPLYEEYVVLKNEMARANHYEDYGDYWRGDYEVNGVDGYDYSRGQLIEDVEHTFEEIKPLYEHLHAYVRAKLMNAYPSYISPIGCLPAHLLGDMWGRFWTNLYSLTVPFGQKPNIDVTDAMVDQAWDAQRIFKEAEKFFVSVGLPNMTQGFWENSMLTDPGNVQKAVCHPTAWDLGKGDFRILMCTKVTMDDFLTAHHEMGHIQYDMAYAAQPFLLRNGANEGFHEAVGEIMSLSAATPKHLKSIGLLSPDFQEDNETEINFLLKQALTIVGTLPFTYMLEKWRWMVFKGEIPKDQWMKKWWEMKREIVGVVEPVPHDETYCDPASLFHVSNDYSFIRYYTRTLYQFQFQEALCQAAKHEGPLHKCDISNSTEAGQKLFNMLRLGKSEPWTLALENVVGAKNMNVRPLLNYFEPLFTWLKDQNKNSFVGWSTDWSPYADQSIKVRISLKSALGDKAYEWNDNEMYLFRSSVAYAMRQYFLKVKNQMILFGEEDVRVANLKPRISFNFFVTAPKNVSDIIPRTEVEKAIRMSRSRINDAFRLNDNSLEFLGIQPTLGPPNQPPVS

B1: ACE2 variant antibody 4-33 (VHH)
VHH: EVQLVESGGGLVQPGGSLRLSCAASGFTFSRHDMGWFRQAPGKEREFVAGINWESGSTNYADSVKGRFTISADNSKNTAYLQMNSLKPEDTAVYYCAADRGVYGGRWYRTSQYTWGQGTLVTVSS
- koff (ACE2 [1]): 0.000552 s⁻¹
- kon (ACE2 [1]): 229000 M⁻¹ s⁻¹
- Kd (ACE2 [2]): 2.4 nM
- koff (ACE2 [2]): 0.000552 s⁻¹
- kon (ACE2 [2]): 229000 M⁻¹ s⁻¹

B2: ACE2 variant antibody 4-89 (VHH)
VHH: EVQLVESGGGLVQPGGSLRLSCAASGFAFGDNWIGWFRQAPGKEREWVASISSGGTTAYADNVKGRFTIIADNSKNTAYLQMNSLKPEDTAVYYCAHRGGWLRPWGYWGQGTLVTVSS
- koff (ACE2 [1]): 0.000611 s⁻¹
- kon (ACE2 [1]): 2.04e+06 M⁻¹ s⁻¹
- Kd (ACE2 [2]): 0.3 nM
- koff (ACE2 [2]): 0.000611 s⁻¹
- kon (ACE2 [2]): 2.04e+06 M⁻¹ s⁻¹

B3: ACE2 variant antibody 4-64 (VHH)
VHH: EVQLVESGGGLVQPGGSLRLSCAASGRTFGDYIMGWFRQAPGKERESVAAINWSAGYTAYADSVKGRFTISADNSKNTAYLQMNSLKPEDTAVYYCATASPNTGWHFDHWGQGTLVTVSS
- koff (ACE2 [1]): 0.0007 s⁻¹
- kon (ACE2 [1]): 2.9e+06 M⁻¹ s⁻¹
- Kd (ACE2 [2]): 0.2 nM
- koff (ACE2 [2]): 0.0007 s⁻¹
- kon (ACE2 [2]): 2.9e+06 M⁻¹ s⁻¹

B4: ACE2 variant antibody 4-41 (VHH)
VHH: EVQLVESGGGLVQPGGSLRLSCAASGRTFGDYIMGWFRQAPGKERESVAAINWSGGTTPYADSVKGRFTISADNSKNTAYLQMNSLKPEDTAVYYCATDPPLFCCHVDLWGQGTLVTVSS
- koff (ACE2 [1]): 0.001 s⁻¹
- kon (ACE2 [1]): 180000 M⁻¹ s⁻¹
- Kd (ACE2 [2]): 5.6 nM
- koff (ACE2 [2]): 0.001 s⁻¹
- kon (ACE2 [2]): 180000 M⁻¹ s⁻¹

B5: ACE2 variant antibody 4-49 (VHH)
VHH: EVQLVESGGGLVQPGGSLRLSCAASGRTFGDYIMGWFRQAPGKERESVAAINWSAGYTAYADSVKGRFTISADNSKNTAYLQMNSLKPEDTAVYYCARASPNTGWHFDHWGQGTLVTVSS
- koff (ACE2 [1]): 0.00098 s⁻¹
- kon (ACE2 [1]): 2.91e+06 M⁻¹ s⁻¹
- Kd (ACE2 [2]): 0.3 nM
- koff (ACE2 [2]): 0.00098 s⁻¹
- kon (ACE2 [2]): 2.91e+06 M⁻¹ s⁻¹

B6: ACE2 variant antibody 4-61 (VHH)
VHH: EVQLVESGGGLVQPGGSLRLSCAASGRTFGDYIMGWFRQAPGKEREIVAAINWSADYTPYADSVKGRFTISADNSKNTAYLQMNSLKPEDTAVYYCATAPPNTGWHFDHWGQGTLVTVSS
- koff (ACE2 [1]): 0.00286 s⁻¹
- kon (ACE2 [1]): 348000 M⁻¹ s⁻¹
- Kd (ACE2 [2]): 8.2 nM
- koff (ACE2 [2]): 0.00286 s⁻¹
- kon (ACE2 [2]): 348000 M⁻¹ s⁻¹

B7: ACE2 variant antibody 4-95 (VHH)
VHH: EVQLVESGGGLVQPGGSLRLSCAASGRTFGDYIMGWFRQAPGKEREIVAAINWSAGYTAYADSVKGRFTISADNSKNTAYLQMNSLKPEDTAVYYCATAPPLFCWHFDHWGQGTLVTVSS
- koff (ACE2 [1]): 0.00772 s⁻¹
- kon (ACE2 [1]): 415000 M⁻¹ s⁻¹
- Kd (ACE2 [2]): 18.6 nM
- koff (ACE2 [2]): 0.00772 s⁻¹
- kon (ACE2 [2]): 415000 M⁻¹ s⁻¹

B8: ACE2 variant antibody 4-62 (VHH)
VHH: EVQLVESGGGLVQPGGSLRLSCAASGRTFSDDTMGWFRQAPGKEREFVAAINWSGGSTDYADSVKGRFTISADNSKNTAYLQMNSLKPEDTAVYYCATDPPLFWGQGTLVTVSS
- koff (ACE2 [1]): 0.00365 s⁻¹
- kon (ACE2 [1]): 245000 M⁻¹ s⁻¹
- Kd (ACE2 [2]): 14.9 nM
- koff (ACE2 [2]): 0.00365 s⁻¹
- kon (ACE2 [2]): 245000 M⁻¹ s⁻¹

B9: variant 6-57 (Fc fusion)
VHH: EVQLVESGGGLVQPGGSLRLSCAASGLTFDDHSMGWFRQAPGKEREFVAAVPLSGNTYYADSVKGRFTISADNSKNTAYLQMNSLKPEDTAVYYCASFSGGPADFDYWGQGTLVTVSS
- Kd [3]: 205 nM

B10: variant 6-62 (Fc fusion)
VHH: EVQLVESGGGLVQPGGSLRLSCAASGSTFSGNWMGWFRQAPGKEREFVAVISWTGGSTYYADSVKGRFTISADNSKNTAYLQMNSLKPEDTAVYYCATHNSLSGFDYWGQGTLVTVSS
- Kd [3]: 151 nM

B11: variant 6-63 (Fc fusion)
VHH: EVQLVESGGGLVQPGGSLRLSCAASGQTFNMGWFRQAPGKEREFVAAIGSGGSTSYADSVKGRFTISADNSKNTAYLQMNSLKPEDTAVYYCWRLGNDYFDYWGQGTLVTVSS
notes: VHH-Fc
- Kd [3]: 21.8 nM

B12: variant 6-65 (Fc fusion)
VHH: EVQLVESGGGLVQPGGSLRLSCAASGLPFSTLHMGWFRQAPGKEREFVASLSIFGATGYADSVKGRFTISADNSKNTAYLQMNSLKPEDTAVYYCWMYYYDSSGYYGNYYYGMDVWGQGTLVTVSS
- Kd [3]: 890 nM

B13: variant 6-66 (Fc fusion)
VHH: EVQLVESGGGLVQPGGSLRLSCAASGLTFSLFAMGWFRQAPGKERELVAAISSGGSTDYADSVKGRFTISADNSKNTAYLQMNSLKPEDTAVYYCARGNTKYYYDSSGYSSAFDYWGQGTLVTVSS
- Kd [3]: 293 nM

B14: variant 6-67 (Fc fusion)
VHH: EVQLVESGGGLVQPGGSLRLSCAASGSFSNYAMGWFRQAPGKEREFVAAISSSGALTSYADSVKGRFTISADNSKNTAYLQMNSLKPEDTAVYYCWIVGPGPLDGMDVWGQGTLVTVSS
- Kd [3]: 55.6 nM

B15: variant 6-68 (Fc fusion)
VHH: EVQLVESGGGLVQPGGSLRLSCAASGFTLSDRAMGWFRQAPGKEREYVAHITAGGLSNYADSVKGRFTISADNSKNTAYLQMNSLKPEDTAVYYCVHLASQTGAGYFDLWGQGTLVTVSS
- Kd [3]: 102 nM

B16: variant 6-70 (Fc fusion)
VHH: EVQLVESGGGLVQPGGSLRLSCAASGFNLDDYADMGWFRQAPGKEREFVAAIGWGGGSTRYADSVKGRFTISADNSKNTAYLQMNSLKPEDTAVYYCAREILWFGEFGEPNVWGQGTLVTVSS
- Kd [3]: 35.9 nM

B17: variant 6-71 (Fc fusion)
VHH: EVQLVESGGGLVQPGGSLRLSCAASGITFSNDAMGWFRQAPGKEREFVAIITSSDTNDTTNYADSVKGRFTISADNSKNTAYLQMNSLKPEDTAVYYCARLHYYDSSGYFDYWGQGTLVTVSS
- Kd [3]: 155 nM

B18: variant 6-72 (Fc fusion)
VHH: EVQLVESGGGLVQPGGSLRLSCAASGSTLSINAMGWFRQAPGKEREFVAAIDWSGGSTAYADSVKGRFTISADNSKNTAYLQMNSLKPEDTAVYYCARDSSATRTGPDYWGQGTLVTVSS
- Kd [3]: 92.8 nM

B19: variant 6-74 (Fc fusion)
VHH: EVQLVESGGGLVQPGGSLRLSCAASGFAFGDSWMGWFRQAPGKERELVAAITSGGSTDYADSVKGRFTISADNSKNTAYLQMNSLKPEDTAVYYCARGLLWFGELFGYWGQGTLVTVSS
- Kd [3]: 73.9 nM

B20: variant 6-75 (Fc fusion)
VHH: EVQLVESGGGLVQPGGSLRLSCAASGGTFSTYWMGWFRQAPGKEREFVAAISRSGGNTYYADSVKGRFTISADNSKNTAYLQMNSLKPEDTAVYYCVRHSGTDGDSSFDYWGQGTLVTVSS
- Kd [3]: 181 nM

B21: variant 6-79 (Fc fusion)
VHH: EVQLVESGGGLVQPGGSLRLSCAASGSISSIDYMGWFRQAPGKEREGVSWISSSDGSTYYADSVKGRFTISADNSKNTAYLQMNSLKPEDTAVYYCARSPSFSQIYYYYYMDVWGQGTLVTVSS
- Kd [3]: 158 nM

B22: variant 6-81 (Fc fusion)
VHH: EVQLVESGGGLVQPGGSLRLSCAASGFIGNYHAMGWFRQAPGKEREFVAAVTWSGGTTNYADSVKGRFTISADNSKNTAYLQMNSLKPEDTAVYYCAREGYYYDSSGYPYYFDYWGQGTLVTVSS
- Kd [3]: 12.9 nM

B23: variant 6-82 (Fc fusion)
VHH: EVQLVESGGGLVQPGGSLRLSCAASGSSLDAYGMGWFRQAPGKEREFVAAISWGGGSIYYADSVKGRFTISADNSKNTAYLQMNSLKPEDTAVYYCARLSQGMVALDYWGQGTLVTVSS
- Kd [3]: 7.1 nM

B24: variant 6-84 (Fc fusion)
VHH: EVQLVESGGGLVQPGGSLRLSCAASGFTPDDYAMGWFRQAPGKEREFVAAINSGGSYTYYADSVKGRFTISADNSKNTAYLQMNSLKPEDTAVYYCARDRGPWGQGTLVTVSS
- Kd [3]: 82.6 nM

B25: variant 6-90 (Fc fusion)
VHH: EVQLVESGGGLVQPGGSLRLSCAASGFPFSIWPMGWFRQAPGKEREFVAAVRWSSTYYADSVKGRFTISADNSKNTAYLQMNSLKPEDTAVYYCATGECDGGSCSLAYWGQGTLVTVSS
- Kd [3]: 114 nM

B26: variant 6-97 (Fc fusion)
VHH: EVQLVESGGGLVQPGGSLRLSCAASGFTFSSLAMGWFRQAPGKEREFVAAITWSGDITNYADSVKGRFTITADNSKNTAYLQMNSLKPEDTAVYYCLRLSSSGFDHWGQGTLVTVSS
- Kd [3]: 4070 nM

B27: variant 6-99 (Fc fusion)
VHH: EVQLVESGGGLVQPGGSLRLSCAASGIPFRSRTMGWFRQAPGKEREFVAGISRSGASTAYADSVKGRFTISADNSKNTAYLQMNSLKPEDTAVYYCTHANDYGDYWGQGTLVTVSS
- Kd [3]: 51.6 nM

B28: variant 6-102 (Fc fusion)
VHH: EVQLVESGGGLVQPGGSLRLSCAASGSSFSAYAMGWFRQAPGKEREFVSAIDSEGTTTYADSVKGRFTISADNSKNTAYLQMNSLKPEDTAVYYCAGDYNFWSGFDHWGQGTLVTVSS
- Kd [3]: 45.7 nM

B29: variant 6-103 (Fc fusion)
VHH: EVQLVESGGGLVQPGGSLRLSCAASGRTSSPIAMGWFRQAPGKEREPVAVRWSDDYTYYADSVKGRFTISADNSKNTAYLQMNSLKPEDTAVYYCAKKLGGYYAFDIWGQGTLVTVSS
- Kd [3]: 23.6 nM

B30: variant 6-108 (Fc fusion)
VHH: EVQLVESGGGLVQPGGSLRLSCAASGGTFGSYGMGWFRQAPGKEREFVAAIRWSGGITYYADSVKGRFTISADNSKNTAYLQMNSLKPEDTAVYYCARERYWNPLPYYYYGMDVWGQGTLVTVSS
- Kd [3]: 69.4 nM

B31: variant 6-112 (Fc fusion)
VHH: EVQLVESGGGLVQPGGSLRLSCAASGGTFSAYHMGWFRQAPGKERELVTIIDNGGPTSYADSVKGRFTISADNSKNTAYLQMNSLKPEDTAVYYCTALLYYFDNSGYNFDPFDIWGQGTLVTGSS
- Kd [3]: 3230 nM
